“Also recorded” adds a separate entry of the source.
Assays:
[1] = test system: PEX19-deficient human fibroblasts (ΔPEX19 T); assay: Functional complementation of PEX19-deficient fibroblasts (peroxisomal protein import); assay type: cell-based; settings: full-length PEX19 variants, 72 h after transfection
Text: A bicistronic expression plasmid coding for eGFP-PTS1 and non-tagged PEX14 (pMF1220)[43] was kindly provided by Marc Fransen (Leuven, Belgium). pIRES2-HsPEX19-eGFP-PTS1 was constructed by replacing the open reading frame of PEX14 (BglII/SalI) with a DNA-cassette encoding the full-length open reading frame of human PEX19 as derived from BamHI/SalI digestion of pAH05 (ref. [44]). Single point mutations were introduced into the PEX19 sequence by Quickchange XL Site-directed Mutagenesis kit (Stratagene) using primer pairs (Supplementary Table 1). The bicistronic expression vectors coding for PEX19 variants and eGFP-PTS1 were transfected into the human cell-line ΔPEX19 T which was derived from PEX19-deficient Zellweger patient fibroblasts. ΔPEX19 T cells, characterized by a defect in peroxisome biogenesis were routinely authenticated by functional complementation assays as described below and checked for mycoplasma contamination using Venor GeM Advance Mycoplasm Detection Kit (Minerva Biolabs). The efficiency of transfection according to the Amaxa Cell Line Nucleofector Kit R protocol (Lonza Cologne AG) was always around 90%. After 72 h of transfection, cells were subjected to fluorescence and immunofluorescence microscopy using polyclonal antiserum against human PEX14 (ref. [45]) (1:400 diluted) or monoclonal antibodies against human PEX19 (BD Biosciences, MA5-17266 Thermo Scientific; 1:400 diluted). Statistical analysis was carried out from three independent transfections of each pIRES-PEX19-eGFP-PTS1 expression plasmid. Based on the appearance of eGFP-PTS1 fluorescence pattern, about 100 cells of each experiment were visually categorized into three classes, (i) full complementation of peroxisomal import as visualized by punctuate staining pattern, (ii) partial complementation as indicated by diffuse cytosolic staining with few dots, (iii) no complementation resulting in only cytosolic staining. All micrographs were recorded on a Zeiss Axioplan 2 microscope with a Zeiss Plan-Apochromat × 63/1.4 oil objective and an Axiocam MR digital camera, and were processed with AxioVision 4.6 software (Zeiss, Jena, Germany). The steady-state level of PEX19 expression was assessed by immunoblot analysis, using monoclonal mouse antibodies against HsPEX19 (BD Biosciences, MA5-17266; 1:1,000 diluted) (Supplementary Fig. 9).

[2] = Hydrophobic interaction chromatography; assay type: physicochemical; settings: Butyl Sepharose FF, linear decreasing (NH4)2SO4 650–0 mM, 20 ml, 280 nm; for elution volume after start of the gradient: 20 mM potassium phosphate, pH 6.5, 50 mM NaCl, 500 μg protein; for ΔV, difference in elution volume between farnesylated and non-farnesylated protein: pH 6.5
Procedure: Purified PEX19 CTD and variants were adjusted to a buffer containing 650 mM (NH4)2SO4 and 500 μg protein was subjected to equilibrated Butyl Sepharose FF column (20 mM potassium phosphate, pH 6.5, 50 mM NaCl and 650 mM (NH4)2SO4). After washing, bound protein was eluted with linear decreasing (NH4)2SO4 concentrations (650–0 mM (NH4)2SO4, 20 ml). Eluted proteins were detected using 280 nm absorption. The binding strength is indicated by the elution volume and correlates with protein hydrophobicity.

[3] = 15N NMR relaxation, tumbling correlation time; assay type: physicochemical; settings: for tumbling correlation time τc: 15N R2/R1 ratio, 750 MHz, 298 K, PEX19 CTD residues 161–299; for oligomeric state in solution: from τc, 15N NMR relaxation
Text: NMR spectra were acquired at 298 K on a Bruker Avance III 600-MHz spectrometer with a TCI cryo-probe head, an Avance III 750-MHz spectrometer with a TXI probe head, or an Avance 900 instrument with a TXI cryo-probe head. Spectra were processed using NMRPipe[31] and analysed with Sparky[32]. Backbone assignment was done semi-automatically with MARS[33]. Backbone and side chain assignments were obtained from HNCA, HNCACB, CBCA(CO)NH, H(C)CH-TOCSY and (H)CCH-TOCSY spectra. ^13C- and ^15N- edited NOESY spectra with a mixing time of 70 ms were recorded to derive distance restraints. For NOEs between PEX19 and the farnesyl group, isotope-edited and filtered 3D NOESY spectra (70 and 100 ms mixing times) were acquired using specific isotope-labelled samples. ^15N R1, R2 relaxation rates and {^1H}-^15N heteronuclear NOEs were recorded at an Avance III 750 MHz spectrometer. Local correlation times were derived from the ^15N R2/R1 ratio[35]. For determination of solvent paramagnetic relaxation enhancement rates, gadolinium diethylene-triamine-penta-acetic-acid bismethylamide (Gd(DTPA-BMA)) was titrated to the protein samples[36][37][38]. Saturation recovery ^1H,^15N HSQC experiments with recovery times from 0.01 to 3 s were recorded at concentrations of 0, 1, 2, 3, 5, 7 and 10 mM Gd(DTPA-BMA). Peak intensities were fitted to an exponential recovery function according to equation I(τ)=I0−Aexp(−R1τ), where τ is the recovery delay, I(τ) is the peak intensity measured for the recovery delay τ, I0 is the maximum peak intensity, R1 is the longitudinal proton relaxation rate and A is the signal amplitude. To obtain the sPRE value, the proton R1 rates were collected for all measured concentrations of Gd(DTPA-BMA) cpara and a linear regression for the equation R1 (cpara)=msPRE cpara+ [drawing 1] was performed, where R1 (cpara) is the proton R1 measured at the concentration cpara of the paramagnetic compound, the slope msPRE corresponds to the sPRE and [drawing 2] is the fitted proton R1 in the absence of the paramagnetic compound[36]. For NMR titrations an ALDP peptide (sequence: AAKAGMNRVFLQRLL, residues 62–76 of human ALDP) was dissolved to a concentration of 5 mM in NMR buffer and added to ^15N-labelled PEX19 CTD with and without farnesylation in the same buffer up to a protein-peptide molar ratio of 1:10.

B1: PEX19 I195K: full-length PEX19 variant I195K (protein, UniProt P40855 1-299, looked up, variant I195K)
chain: MAAAEEGCSVGAEADRELEELLESALDDFDKAKPSPAPPSTTTAPDASGPQKRSPGDTAKDALFASQEKFFQELFDSELASQATAEFEKAMKELAEEEPHLVEQFQKLSEAAGRVGSDMTSQQEFTSCLKETLSGLAKNATDLQNSSMSEEELTKAMEGLGMDEGDGEGNILPIMQSIMQNLLSKDVLYPSLKEKTEKYPEWLQSHRESLPPEQFEKYQEQHSVMCKICEQFEAETPTDSETTQKARFEMVLDLMQQLQDLGHPPKELAGEMPPGLNFDLDALNLSGPPGASGEQCLIM
modifications: full-length
[1]
  functional complementation (in words): impaired although less strongly
[1]; at least 100 cells in three independent transfections, series of Fig. 3c
  cells showing restored peroxisomal protein transport (functional complementation): 23%

B2: PEX19 P273F/P274F: full-length PEX19 with two lid prolines replaced by phenylalanine (protein, UniProt P40855 1-299, looked up, variant P273F P274F)
chain: MAAAEEGCSVGAEADRELEELLESALDDFDKAKPSPAPPSTTTAPDASGPQKRSPGDTAKDALFASQEKFFQELFDSELASQATAEFEKAMKELAEEEPHLVEQFQKLSEAAGRVGSDMTSQQEFTSCLKETLSGLAKNATDLQNSSMSEEELTKAMEGLGMDEGDGEGNILPIMQSIMQNLLSKDVLYPSLKEITEKYPEWLQSHRESLPPEQFEKYQEQHSVMCKICEQFEAETPTDSETTQKARFEMVLDLMQQLQDLGHPPKELAGEMFFGLNFDLDALNLSGPPGASGEQCLIM
modifications: full-length
notes: full-length PEX19 with two lid prolines replaced by phenylalanine
[1]; 100 cells each of three independent transfections, series of Fig. 5d
  cells displaying import-competent peroxisomes (complementation rate): 20%

B3: PEX19 CTD: human PEX19 C-terminal domain (residues 161–299) (protein)
chain: GMDEGDGEGNILPIMQSIMQNLLSKDVLYPSLKEITEKYPEWLQSHRESLPPEQFEKYQEQHSVMCKICEQFEAETPTDSETTQKARFEMVLDLMQQLQDLGHPPKELAGEMPPGLNFDLDALNLSGPPGASGEQCLIM
modifications: left off: His6, end not stated, cleaved
[2]
  elution volume after start of the gradient: 9.66 mL
  ΔV, difference in elution volume between farnesylated and non-farnesylated protein: 5.08 mL
[3]
  tumbling correlation time τc: 11.4 ns
  oligomeric state in solution: monomeric in solution

B4: I195K: PEX19 CTD variant I195K (helix α2) (protein)
chain: GMDEGDGEGNILPIMQSIMQNLLSKDVLYPSLKEKTEKYPEWLQSHRESLPPEQFEKYQEQHSVMCKICEQFEAETPTDSETTQKARFEMVLDLMQQLQDLGHPPKELAGEMPPGLNFDLDALNLSGPPGASGEQCLIM
modifications: farnesyl group on Cys296 (CaaX box); left off: His6, end not stated, cleaved
[2]
  elution volume after start of the gradient: 8.40 mL
  ΔV, difference in elution volume between farnesylated and non-farnesylated protein: 8.01 mL

B5: M179R: PEX19 CTD variant M179R (helix α1) (protein)
chain: GMDEGDGEGNILPIMQSIRQNLLSKDVLYPSLKEITEKYPEWLQSHRESLPPEQFEKYQEQHSVMCKICEQFEAETPTDSETTQKARFEMVLDLMQQLQDLGHPPKELAGEMPPGLNFDLDALNLSGPPGASGEQCLIM
modifications: left off: His6, end not stated, cleaved
[2]
  elution volume after start of the gradient: 4.60 mL
[1]
  functional complementation (in words): not capable of rescuing the ΔPEX19 phenotype; also recorded: cannot restore peroxisomal biogenesis

B6: I195K farn: farnesylated PEX19 CTD variant I195K (protein, UniProt P40855 161-299, looked up, variant I195K)
chain: GMDEGDGEGNILPIMQSIMQNLLSKDVLYPSLKEKTEKYPEWLQSHRESLPPEQFEKYQEQHSVMCKICEQFEAETPTDSETTQKARFEMVLDLMQQLQDLGHPPKELAGEMPPGLNFDLDALNLSGPPGASGEQCLIM
modifications: C-terminal domain farnesylated
[2]
  elution volume after start of the gradient: 16.41 mL

B7: M255R farn: farnesylated PEX19 CTD variant M255R (protein, UniProt P40855 161-299, looked up, variant M255R)
chain: GMDEGDGEGNILPIMQSIMQNLLSKDVLYPSLKEITEKYPEWLQSHRESLPPEQFEKYQEQHSVMCKICEQFEAETPTDSETTQKARFEMVLDLRQQLQDLGHPPKELAGEMPPGLNFDLDALNLSGPPGASGEQCLIM
modifications: C-terminal domain farnesylated
[2]
  elution volume after start of the gradient: 17.9 mL

B8: M179R farn: farnesylated PEX19 CTD variant M179R (protein, UniProt P40855 161-299, looked up, variant M179R)
chain: GMDEGDGEGNILPIMQSIRQNLLSKDVLYPSLKEITEKYPEWLQSHRESLPPEQFEKYQEQHSVMCKICEQFEAETPTDSETTQKARFEMVLDLMQQLQDLGHPPKELAGEMPPGLNFDLDALNLSGPPGASGEQCLIM
modifications: C-terminal domain farnesylated
[2]
  elution volume after start of the gradient: 11.26 mL

B9: PEX19 CTD farnesylated: human PEX19 CTD (residues 161–299) farnesylated in vitro (protein)
chain: GMDEGDGEGNILPIMQSIMQNLLSKDVLYPSLKEITEKYPEWLQSHRESLPPEQFEKYQEQHSVMCKICEQFEAETPTDSETTQKARFEMVLDLMQQLQDLGHPPKELAGEMPPGLNFDLDALNLSGPPGASGEQCLIM
modifications: farnesyl group on Cys296 (CaaX box); left off: His6, end not stated, cleaved
notes: human PEX19 CTD (residues 161–299) farnesylated in vitro
[2]
  elution volume after start of the gradient: 14.74 mL
[3]
  tumbling correlation time τc: 10.5 ns
  oligomeric state in solution: monomeric in solution
